system: Escherichia coli TOP10; test: shrunken log2 fold change of peptide-encoding DNA abundance (4.5 h post-induction vs induction); higher = less antimicrobial activity (less host growth inhibition); conditions: time post-induction: 4.5 h; library: site-saturation at positions 5, 18, 19, 20
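Note: peptides expressed intracellularly from a pBAD plasmid library in pooled LB shake-flask culture, induced with 0.3% L-arabinose, DNA abundance read by NGS, three biological replicates, DESeq2 with apeglm shrinkage.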

Row | Sequence | shrunken log2 fold change
1 | RRIRHRPPRLPRPRPRPHNSPRP | -0.692
2 | RRIRQRPPRLPRPRPRPAPTPRP | 0.709
3 | RRIRVRPPRLPRPRPRPGLYPRP | -0.384
4 | RRIRCRPPRLPRPRPRPERRPRP | 0.0271
5 | RRIRCRPPRLPRPRPRPCNEPRP | -0.514
6 | RRIRWRPPRLPRPRPRPKNCPRP | -0.122
7 | RRIRQRPPRLPRPRPRPFQDPRP | -0.195
8 | RRIRKRPPRLPRPRPRPASHPRP | 0.442
9 | RRIRARPPRLPRPRPRPEGLPRP | 0.527
10 | RRIRRRPPRLPRPRPRPHLRPRP | 0.298
11 | RRIRFRPPRLPRPRPRPVSPPRP | -0.172
12 | RRIRQRPPRLPRPRPRPQYRPRP | 0.0114
13 | RRIRIRPPRLPRPRPRPQSWPRP | -0.0752
14 | RRIRGRPPRLPRPRPRPREYPRP | 0.355
15 | RRIRRRPPRLPRPRPRPARFPRP | 0.709
16 | RRIRMRPPRLPRPRPRPSVRPRP | -0.00857
17 | RRIRHRPPRLPRPRPRPWMCPRP | -1.49
18 | RRIRNRPPRLPRPRPRPNTVPRP | -0.409
19 | RRIRKRPPRLPRPRPRPKDHPRP | 0.308
20 | RRIRPRPPRLPRPRPRPITSPRP | -0.354
21 | RRIRSRPPRLPRPRPRPQCKPRP | 0.0936
22 | RRIRTRPPRLPRPRPRPPGNPRP | -0.0517
23 | RRIRSRPPRLPRPRPRPLMFPRP | -0.321

Row | Sequence | shrunken log2 fold change
24 | RRIRRRPPRLPRPRPRPAVFPRP | 0.45
25 | RRIRARPPRLPRPRPRPTNPPRP | 0.288
26 | RRIRNRPPRLPRPRPRPDTFPRP | 0.0183
27 | RRIRNRPPRLPRPRPRPFSDPRP | -0.246
28 | RRIRNRPPRLPRPRPRPISCPRP | -0.205
29 | RRIRMRPPRLPRPRPRPAMGPRP | 0.867
30 | RRIRIRPPRLPRPRPRPAGWPRP | 0.582
31 | RRIRIRPPRLPRPRPRPRNDPRP | -0.543
32 | RRIRPRPPRLPRPRPRPFVYPRP | -0.706
33 | RRIRYRPPRLPRPRPRPKPCPRP | -0.0304
34 | RRIRWRPPRLPRPRPRPSHPPRP | -0.0699
35 | RRIRIRPPRLPRPRPRPPHRPRP | -0.144
36 | RRIRYRPPRLPRPRPRPGWNPRP | -0.182
37 | RRIRCRPPRLPRPRPRPNWEPRP | 0.0349
38 | RRIRERPPRLPRPRPRPIIKPRP | -0.703
39 | RRIRFRPPRLPRPRPRPGPGPRP | 0.676
40 | RRIRFRPPRLPRPRPRPKLHPRP | -0.0553
41 | RRIRFRPPRLPRPRPRPQFLPRP | -0.236
42 | RRIRHRPPRLPRPRPRPWQNPRP | -0.169
43 | RRIRHRPPRLPRPRPRPQFWPRP | 0.115
44 | RRIRQRPPRLPRPRPRPPCWPRP | 0.102
45 | RRIRHRPPRLPRPRPRPTHAPRP | 0.233
46 | RRIRIRPPRLPRPRPRPNKNPRP | -0.701

Row | Sequence | shrunken log2 fold change
47 | RRIRMRPPRLPRPRPRPCIHPRP | 0.00462
48 | RRIRARPPRLPRPRPRPFWEPRP | 0.269
49 | RRIRDRPPRLPRPRPRPESDPRP | 0.000356
50 | RRIRGRPPRLPRPRPRPTCSPRP | 0.991
51 | RRIRERPPRLPRPRPRPIGPPRP | -0.138
52 | RRIRERPPRLPRPRPRPSACPRP | 0.0132
53 | RRIRQRPPRLPRPRPRPPDCPRP | -0.0194
54 | RRIRPRPPRLPRPRPRPYNQPRP | -0.429
55 | RRIRRRPPRLPRPRPRPLDFPRP | 0.184
56 | RRIRPRPPRLPRPRPRPTRDPRP | 0.481
57 | RRIRRRPPRLPRPRPRPIRCPRP | 0.334
58 | RRIRERPPRLPRPRPRPSERPRP | -0.239
59 | RRIRDRPPRLPRPRPRPFYRPRP | 0.03
60 | RRIRKRPPRLPRPRPRPGIPPRP | -0.0948
61 | RRIRDRPPRLPRPRPRPFCQPRP | -0.00439
62 | RRIRDRPPRLPRPRPRPCPDPRP | -0.312
63 | RRIRVRPPRLPRPRPRPGDAPRP | 0.0792
64 | RRIRLRPPRLPRPRPRPLTWPRP | 0.0168
65 | RRIRKRPPRLPRPRPRPWYEPRP | -0.0672
66 | RRIRERPPRLPRPRPRPDWGPRP | -0.00783
67 | RRIRYRPPRLPRPRPRPFMLPRP | -1.19
68 | RRIRCRPPRLPRPRPRPLWWPRP | 0.204
69 | RRIRCRPPRLPRPRPRPLCAPRP | 0.12

Row | Sequence | shrunken log2 fold change
70 | RRIRCRPPRLPRPRPRPCAFPRP | -0.311
71 | RRIRCRPPRLPRPRPRPWDFPRP | -0.0326
72 | RRIRQRPPRLPRPRPRPYYLPRP | -0.253
73 | RRIRDRPPRLPRPRPRPMHKPRP | 0.0101
74 | RRIRTRPPRLPRPRPRPFRVPRP | -0.108
75 | RRIRDRPPRLPRPRPRPFCGPRP | 0.258
76 | RRIRKRPPRLPRPRPRPIAEPRP | 0.0504
77 | RRIRGRPPRLPRPRPRPNVVPRP | 0.0631
78 | RRIRPRPPRLPRPRPRPDSLPRP | -0.257
79 | RRIRDRPPRLPRPRPRPDYRPRP | -0.241
80 | RRIRRRPPRLPRPRPRPLMPPRP | 0.297
81 | RRIRRRPPRLPRPRPRPRDFPRP | 0.298
82 | RRIRYRPPRLPRPRPRPTHCPRP | 0.0602
83 | RRIRVRPPRLPRPRPRPIHYPRP | -0.137
84 | RRIRMRPPRLPRPRPRPIYPPRP | -0.125
85 | RRIRRRPPRLPRPRPRPNQQPRP | -0.0676
86 | RRIRDRPPRLPRPRPRPQEIPRP | -0.00905
87 | RRIRQRPPRLPRPRPRPLIQPRP | -0.228
88 | RRIRIRPPRLPRPRPRPSGGPRP | 0.0858
89 | RRIRLRPPRLPRPRPRPLLSPRP | -0.327
90 | RRIRVRPPRLPRPRPRPEAVPRP | 0.112
91 | RRIRMRPPRLPRPRPRPHRQPRP | 0.532

Source: the supplement of paper PMC9112550, “Optimization of the antimicrobial peptide Bac7 by deep mutational scanning” (BMC Biology, 2022)
